Target: human Toll-like Receptor 2, wild type (human) (UniProt O60603)
Assay: cell-based or functional assay

Chain of UniProt O60603 (O60603 21-784 D726E limits assumed): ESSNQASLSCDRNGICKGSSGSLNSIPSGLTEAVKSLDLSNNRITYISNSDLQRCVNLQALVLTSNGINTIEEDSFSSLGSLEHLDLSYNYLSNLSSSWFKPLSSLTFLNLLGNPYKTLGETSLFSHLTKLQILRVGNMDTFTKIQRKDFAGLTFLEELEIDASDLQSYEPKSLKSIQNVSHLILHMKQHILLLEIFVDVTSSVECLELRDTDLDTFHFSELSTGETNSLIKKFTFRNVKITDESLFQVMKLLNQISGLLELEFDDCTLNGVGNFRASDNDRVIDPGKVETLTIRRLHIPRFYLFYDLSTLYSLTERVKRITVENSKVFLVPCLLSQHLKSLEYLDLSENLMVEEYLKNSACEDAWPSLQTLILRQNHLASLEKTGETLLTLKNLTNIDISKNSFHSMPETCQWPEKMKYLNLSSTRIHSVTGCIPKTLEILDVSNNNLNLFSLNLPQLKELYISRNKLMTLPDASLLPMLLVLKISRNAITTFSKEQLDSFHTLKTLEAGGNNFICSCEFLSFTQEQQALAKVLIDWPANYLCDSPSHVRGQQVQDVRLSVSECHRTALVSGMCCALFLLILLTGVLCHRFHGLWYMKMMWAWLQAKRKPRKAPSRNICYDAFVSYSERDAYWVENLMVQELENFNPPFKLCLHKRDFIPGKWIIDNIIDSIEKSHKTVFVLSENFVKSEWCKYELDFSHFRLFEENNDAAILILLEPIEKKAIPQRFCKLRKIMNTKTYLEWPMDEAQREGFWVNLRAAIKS

TNF-alpha production from U937 cells stimulated with 100 ng/ml Pam3CSK4: 30 ng/mL
Substance: OPN-301 anti-TLR2 monoclonal antibody (mouse Toll-like Receptor 2 (TLR2) antibody, clone T2.5, HyCult Biotechnology)

Source: patent US20100143336A1
